Patent US10112983B2, “Neuregulin variants and methods of screening and using thereof” (Zensun (Shanghai) Science & Technology, Co., Ltd., priority 2005, dated 2018)
Numbering of substitutions follows the chain as printed. Names may count otherwise.

B1: L3A: neuregulin fragment (177-237) with alanine substitution for the 3rd amino acid (protein)
chain: SHAVKCAEKEKTFCVNGGECFMVKDLSNPSRYLCKCPNEFTGDRCQNYVMASFYKAEELYQ
B2: NRG: the 177-237 amino acids fragment of neuregulin1β2 (SEQ ID NO:1) (protein, listed as Homo sapiens)
chain: B1 chain with A3L
B3: D43A: neuregulin fragment (177-237) with alanine substitution for the 43rd amino acid (protein)
chain: B1 chain with A3L, D43A
B4: 8A47A: neuregulin double mutant, simultaneous alanine substitutions for the 8th and 47th amino acids of the neuregulin fragment (protein)
chain: B1 chain with A3L, E8A, N47A

Columns and labels:
[1] = biological target: T1, ErbB2&ErbB3 co-expressing COS 7 cells (Homo sapiens, UniProt P21860); assay: Receptor binding affinity assay (competition of bound radiolabeled ligand) on COS7 cells; conditions: for receptor binding affinity compared with neuregulin: ErbB2&ErbB3 co-expressing cells; for EC50: Table 7 (footnote defines KD), read-out: EC50, COS7 cells (ErbB2&ErbB3 co-expression)
T1 construct: expressed in transfected cells; host or cells: COS 7
Method: (§1) To study the receptor binding affinity of neuregulin and its mutations, ErbB2&ErbB3 or ErB2&ErB4 co-expressing COS 7 are used. The cells are grown to 80% confluence. In the afternoon, after the cells reach 80% confluence, the media is changed to serum free media.

[2] = biological target: T2, ErbB2&ErbB4 co-expressing COS 7 cells (Homo sapiens, UniProt Q15303); assay: as above; conditions: for receptor binding affinity compared with neuregulin: ErbB2&ErbB4 co-expressing cells; for EC50: Table 7 (footnote defines KD), read-out: EC50, COS7 cells (ErbB2&ErbB4 co-expression)
T2 construct: expressed in transfected cells; host or cells: COS 7
Method: as §1

[3] = biological target: T1, ErbB2&ErbB3 co-expressing COS 7 cells; assay: Signal transduction: AKT phosphorylation by western blot; type: cell-based; conditions: 10 minutes
Method: (§2) Similarly, to study the signal transduction ability of neuregulin and its mutations, ErbB2&ErbB3 or ErbB2&ErbB4 co-expressing COS 7 cells are used. The cells are grown to 80% confluence. In the afternoon, after the cells reach 80% confluence, the media is changed to serum free media. Then after 24 hours, different amounts of neuregulin or neuregulin variants are added into separate wells containing the cells. After 10 minutes, loading buffer is added to lyse the cells. The sample is then harvested and loaded into a separate well of gel for electrophoresis and western blot analysis.

[4] = biological target: T2, ErbB2&ErbB4 co-expressing COS 7 cells; assay: as above; type: cell-based; conditions: 10 minutes
Method: as §2

Molecule | receptor binding affinity compared with neuregulin [1] | EC50 [1] [nM] | receptor binding affinity compared with neuregulin [2] | EC50 [2] [nM] | AKT phosphorylation compared with neuregulin [3] | AKT phosphorylation compared with neuregulin [4]
B1 | nearly the same receptor binding affinity | 1150 | much lower | 1060 | less AKT phosphorylation than neuregulin | more AKT phosphorylation than neuregulin
B2 | – | 1410 | – | 282 | – | –
B3 | nearly the same receptor binding affinity | – | much higher | – | less AKT phosphorylation than neuregulin | more AKT phosphorylation than neuregulin
B4 | – | – | – | – | nearly same AKT phosphorylation as neuregulin | much more AKT phosphorylation than neuregulin
